According to patent US20180051059A1:

Biological target: endogenous Ldb1 complexes at the LCR (in G1E cells) (UniProt P70662)
Assay: cell-based or functional assay

UniProt P70662, sequence (P70662 2-411 limits assumed, one chain of several): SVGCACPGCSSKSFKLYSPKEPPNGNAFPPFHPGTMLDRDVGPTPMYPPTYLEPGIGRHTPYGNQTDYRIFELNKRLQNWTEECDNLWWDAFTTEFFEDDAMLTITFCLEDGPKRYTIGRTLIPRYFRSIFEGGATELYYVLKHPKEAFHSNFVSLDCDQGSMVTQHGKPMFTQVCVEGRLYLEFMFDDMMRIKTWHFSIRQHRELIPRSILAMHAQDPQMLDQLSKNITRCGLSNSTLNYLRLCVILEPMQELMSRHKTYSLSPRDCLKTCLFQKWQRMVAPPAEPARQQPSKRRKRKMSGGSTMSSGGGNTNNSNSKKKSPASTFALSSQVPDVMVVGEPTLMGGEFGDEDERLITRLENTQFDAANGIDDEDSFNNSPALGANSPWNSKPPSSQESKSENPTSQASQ

β-globin transcription in G1E cells (RT-qPCR): > 1000 fold
Substance: P-Ldb1 (P-ZF, zinc finger protein targeting the β-major promoter, fused to full length Ldb1)
